Experimental data published in patent US20230248825.

Tests used:
Assay in all cases: cell_activity
Details in all cases: primary human T cells; as pair; two GMCSF TALEN constructs used, value not split by construct
[1] = system: GMCSF_Tal_2 TALEN left monomer (artificial)
[2] = system: GMCSF_Tal_1 TALEN left monomer (artificial)
[3] = system: GMCSF_Tal_2 TALEN right monomer (artificial)
[4] = system: GMCSF_Tal_1 TALEN right monomer (artificial)

Work on “TCCTGAACCTGAGTAGA (double strand) [GMCSF_Tal_2 left half-site]” yielded an activity (% reduction in GMCSF secretion) [1] of 90.

“TGTGGCTGCAGAGCCTG (double strand) [GMCSF_Tal_1 left half-site]” showed an activity (% reduction in GMCSF secretion) [2] of 90.

In the case of “TGAGATGGTAAGTGAGA (double strand) [GMCSF_Tal_2 right half-site]”, the activity (% reduction in GMCSF secretion) [3] is reported as 90.

“CACTGTGGCCTGCAGCA (double strand) [GMCSF_Tal_1 right half-site]” showed an activity (% reduction in GMCSF secretion) [4] of 90.
